# Laboratory results taken from the RNAGym collection of RNA variant scans (doi:10.7554/elife.80360).
# B1: HDV Ribozyme (parent)
# chain: GGCCGGCAUGGUCCCAGCCUCCUCGCUGGCGCCGGCUGGGCAACAUUCCGAGGGGACCGUCCCCUCGGUAAUGGCGAAUGGGACCCA
# Variants of: B1
# Assay: self-cleavage, relative activity (ratio to wild type); higher = more cleavage; co-transcriptional
row,Variant,self-cleavage
1,AGCCGGCAUGGUCCCAGCCUCCUCGCUGGGGCCGGCUGGGCAACAUUCCGAGGGGACCGUCCCCUCGGUAAUGGCGAAUGGGACCCA [G1A C30G],0
2,AGCCGGCAUGGUCCCAGCCUCCUCGCUGGCGCCGGGUGGGCAACAUUCCGAGGGGACCGUCCCCUCGGUAAUGGCGAAUGGGACCCA [G1A C36G],0.119
3,AGCCGGCAUGGUCCCAGCCUCCUCGCUGGCGCCGGAUGGGCAACAUUCCGAGGGGACCGUCCCCUCGGUAAUGGCGAAUGGGACCCA [G1A C36A],0.154
4,AGCCGGCAUGGUCCCAGCCUCCUCGCUGGCGGCGGCUGGGCAACAUUCCGAGGGGACCGUCCCCUCGGUAAUGGCGAAUGGGACCCA [G1A C32G],0.113
5,AGCCGGCAUGGUCCCAGCCUCCUCGCUGGCGACGGCUGGGCAACAUUCCGAGGGGACCGUCCCCUCGGUAAUGGCGAAUGGGACCCA [G1A C32A],0.0386
6,AGCCGGCAUGGUCCCAGCCUCCUCGCUGGCGUCGGCUGGGCAACAUUCCGAGGGGACCGUCCCCUCGGUAAUGGCGAAUGGGACCCA [G1A C32U],0.133
7,AGCCGGCAUGGUCCCAGCCUCCUCGCUGGCGCCGGCUGGGCAACAUUCCGAGGGGAACGUCCCCUCGGUAAUGGCGAAUGGGACCCA [G1A C57A],0.208
8,AGCCGGCAUGGUCCCAGCCUCCUCGCUGGCGCCGGCUGGGCAACAUUCCGAGGGGAGCGUCCCCUCGGUAAUGGCGAAUGGGACCCA [G1A C57G],0
9,AGCCGGCAUGGUCCCAGCCUCCUCGCUGGCGCCGGCUGGGCAACAUUCCGAGGGGACCGUGCCCUCGGUAAUGGCGAAUGGGACCCA [G1A C61G],0.0831
10,AGCCGGCAUGGUCCCAGCCUCCUCGCUGGCGCCGGCUGGGCAACAUUCCGAGGGGACCGUUCCCUCGGUAAUGGCGAAUGGGACCCA [G1A C61U],0.26
11,AGCCGGCAUGGUCCCAGCCUCCUCGCUGGCGCCGGCUGGGCAACAUUCCGAGGGGACCGUACCCUCGGUAAUGGCGAAUGGGACCCA [G1A C61A],0.145
12,AGCCGGCAUGGUCCCAGCCUCCUCGCUGGCGCCGGCUGGGCAACGUUCCGAGGGGACCGUCCCCUCGGUAAUGGCGAAUGGGACCCA [G1A A45G],0.185
13,AGCCGGCAUGGUCCCAGCCUCCUCGCUGGCGCCGGCUGGGCAACCUUCCGAGGGGACCGUCCCCUCGGUAAUGGCGAAUGGGACCCA [G1A A45C],0.268
14,AGCCGGCAUGGUCCCAGCCUCCUCGCUGGCGCCGGCUGGGCGACAUUCCGAGGGGACCGUCCCCUCGGUAAUGGCGAAUGGGACCCA [G1A A42G],0.115
15,AGCCGGCAUGGUCCGAGCCUCCUCGCUGGCGCCGGCUGGGCAACAUUCCGAGGGGACCGUCCCCUCGGUAAUGGCGAAUGGGACCCA [G1A C15G],0
16,AGCCGGCAUGGUCCCCGCCUCCUCGCUGGCGCCGGCUGGGCAACAUUCCGAGGGGACCGUCCCCUCGGUAAUGGCGAAUGGGACCCA [G1A A16C],0.158

row,Variant,self-cleavage
1,AGCCGGCAUGGUCCCUGCCUCCUCGCUGGCGCCGGCUGGGCAACAUUCCGAGGGGACCGUCCCCUCGGUAAUGGCGAAUGGGACCCA [G1A A16U],0
2,AGCCGGCAUGGUCCCAGCCUCCUCGCUGGCGCCGGCUGGGCAACAUUCCGAGGGGACCGUCCACUCGGUAAUGGCGAAUGGGACCCA [G1A C63A],0.289
3,AGCCGGCAUGGUCCCAGCCUCCUCGCUGGCGCCGGCUGGGCAACAUUCCGGGGGGACCGUCCCCUCGGUAAUGGCGAAUGGGACCCA [G1A A51G],0
4,AGCCGGCCUGGUCCCAGCCUCCUCGCUGGCGCCGGCUGGGCAACAUUCCGAGGGGACCGUCCCCUCGGUAAUGGCGAAUGGGACCCA [G1A A8C],0
5,AGCCGGCAUGGUCCCAGCCUCCUCGCUGGCGCUGGCUGGGCAACAUUCCGAGGGGACCGUCCCCUCGGUAAUGGCGAAUGGGACCCA [G1A C33U],0.0594
6,AGCCGGCAUGGUCCCAGCCUCCUCGCUGGCGCCGGCUGGGCAACAUUCCGAGGGGCCCGUCCCCUCGGUAAUGGCGAAUGGGACCCA [G1A A56C],0.107
7,AGCCGGCAUGGUCCCAGCCUCCUCGCUGGCGCCGGCUGGGCAACAUUCCGAGGGGGCCGUCCCCUCGGUAAUGGCGAAUGGGACCCA [G1A A56G],0
8,AGCCGGCAUGGUCCCAGCCUCCUCGCUGGCGCCGGCUGGGCAACAUUCCGAGGGGUCCGUCCCCUCGGUAAUGGCGAAUGGGACCCA [G1A A56U],0.217
9,AGCCGGCAUGGUCCCAGCCUCCUCGCUGGCGCCGGCUGGGCAACAUUCCGAGGGGACCGUCCCCUCGGUAGUGGCGAAUGGGACCCA [G1A A71G],0.104
10,AGCCGGCAUGGUCCCAGCCUCCUCGCUGGCGCCGGCUGGGCAACAUUCUGAGGGGACCGUCCCCUCGGUAAUGGCGAAUGGGACCCA [G1A C49U],0
11,AGCAGGCAUGGUCCCAGCCUCCUCGCUGGCGCCGGCUGGGCAACAUUCCGAGGGGACCGUCCCCUCGGUAAUGGCGAAUGGGACCCA [G1A C4A],0.166
12,AGCCGGCAUGGUCCCAGCCUCCUCGCUGGCGCCGGCUGGGCAUCAUUCCGAGGGGACCGUCCCCUCGGUAAUGGCGAAUGGGACCCA [G1A A43U],0.0437
13,AGCCGGCAUGGUCCCAGCCUCCUCGCUGGCGCCGGCUGGGCAGCAUUCCGAGGGGACCGUCCCCUCGGUAAUGGCGAAUGGGACCCA [G1A A43G],0.0875
14,AGCCGGCAUGGUCCCAGCCUCCUCGCUGGCGCCGGCUGGGCACCAUUCCGAGGGGACCGUCCCCUCGGUAAUGGCGAAUGGGACCCA [G1A A43C],0.0415
15,AGCCGGCAUGGUCCCAGCCUCCUCGCUGGCGCCGGCUGGGCAACAUUGCGAGGGGACCGUCCCCUCGGUAAUGGCGAAUGGGACCCA [G1A C48G],0.199
16,AGCCGGCAUGGUCCCAGCCUCCUCGCUGGCGCCGGCUGGGCAACAUUUCGAGGGGACCGUCCCCUCGGUAAUGGCGAAUGGGACCCA [G1A C48U],0
